In PMC10611974:

Target: APOBEC3B (A3B) C-terminal domain (ctd)-Cas9n-Ugi (human | S. pyogenes | not stated)

B1: Epstein-Barr virus ribonucleotide reductase large subunit, BORF2 (natural protein)
chain: MATTSHVEHELLSKLIDELKVKANSDPEADVLAGRLLHRLKAESVTHTVAEYLEVFSDKFYDEEFFQMHRDELETRVSAFAQSPAYERIVSSGYLSALRYYDTYLYVGRSGKQESVQHFYMRLAGFCASTTCLYAGLRAALQRARPEIESDMEVFDYYFEHLTSQTVCCSTPFMRFAGVENSTLASCILTTPDLSSEWDVTQALYRHLGRYLFQRAGVGVGVTGAGQDGKHISLLMRMINSHVEYHNYGCKRPVSVAAYMEPWHSQIFKFLETKLPENHERCPGIFTGLFVPELFFKLFRDTPWSDWYLFDPKDAGDLERLYGEEFEREYYRLVTAGKFCGRVSIKSLMFSIVNCAVKAGSPFILLKEACNAHFWRDLQGEAMNAANLCAEVLQPSRKSVATCNLANICLPRCLVNAPLAVRAQRADTQGDELLLALPRLSVTLPGEGAVGDGFSLARLRDATQCATFVVACSILQGSPTYDSRDMASMGLGVQGLADVFADLGWQYTDPPSRSLNKEIFEHMYFTALCTSSLIGLHTRKIFPGFKQSKYAGGWFHWHDWAGTDLSIPREIWSRLSERIVRDGLFNSQFIALMPTSGCAQVTGCSDAFYPFYANASTKVTNKEEALRPNRSFWRHVRLDDREALNLVGGRVSCLPEALRQRYLRFQTAFDYNQEDLIQMSRDRAPFVDQSQSHSLFLREEDAARASTLANLLVRSYELGLKTIMYYCRIEKAADLGVMECKASAALSVPREEQNERSPAEQMPPRPMEPAQVAGPVDIMSKGPGEGPGGWCVPGGLEVCYKYRQLFSEDDLLETDGFTERACESCQ
Binder B1 has an inhibition of A3Bctd CBE editing of the chromosomally integrated TC reporter (eGFP) in 293T cells, flow cytometry, 72 h post-transfection of 4.9 fold.
